# Source: publication PMC8551123, “Pentose degradation in archaea: Halorhabdus species degrade D-xylose, L-arabinose and D-ribose via bacterial-type pathways” (Extremophiles, 2020)
# B1: Arabinose isomerase of Halorhabdus utahensis (Huta_1154) (enzyme, UniProt C7NML7 1-495, looked up)
# chain: MSPIPHGTDFDDLEVWFLTGSQHLYGEETLDLVAEDAREVAAGLDDDDRIPVSVEFKSVLTTADAIESVVREANASEDCIGLITWMHTFSPAKMWIRGLQALDVPFVHLHTQFNRELPYDEIDMDFMNANQSAHGGREFGHIVSRLDIDRKVVVGHWEDDDVREQLDTWARAAAARHELRGAKIARFGDNMRDVAVTEGDKVSAQMAFGASVDGYGLGDLVEFVEDVTESEIDDLLEEYDQQYELAAELQADGDRRDSLREAARIELGIRAFLEDGEFVGFTTTFENLTGLSQLPGLAVQRLMADGYGFGPEGDWKSALLTRAMKVMGQGLNGGTSLMEHYTYDLTEGDEKVLGAHMLEICESIAGEQPRLEIHPLDIGGKADPVRAVFDADTGPAINASLVDMGDRFRLITNDVESVGPDEPLPELPVARAVWKPEPDFETAIEAWIKAGGAHHTGYSQAVTNEHLEDFASMTGIEHLHVGADTDIADVERKLS
# notes: arabinose isomerase, Halorhabdus utahensis, gene Huta_1154 (1488 nucleotides); calculated subunit mass 55.4 kDa; Gene amplified from genomic DNA and cloned into pTA963; source: Haloferax volcanii H1209, purified (Ni-NTA, size-exclusion chromatography)
# B2: Xylulokinase of Halorhabdus utahensis (Huta_2446) (enzyme, UniProt C7NMH3 1-515, looked up)
# chain: MGLDLGTSGVKTLVADADGEVLATNTEEYPLYQPEVGWSEQDPADWWAATLDGIEAVLEDPAVDPEDVEALGLTGQMHGSVFLDGEGEVLRPAILWNDTRTSAQCDEIEERVGEDRIIELASNPPFEGFTAPKILWVQEHEPEVYDQTESILLPKDFIRYKLTEAFATDVSDASGTLLLDVGERDWSPEILDELDISRDLLPEVYESPEVTGAVTDAVAERTGLPAGTPVVAGAGDNAAGAVGSGVVGDGDVWGSIGTSGVIFVATDDERTDPEGRVHTFCHAVPDTWHVMGVMLSAGGAFSWFSETLGGPEEVVADQLGKDAFEVLTDEAATVDPGSEGLIFLPYLNGERTPHRDADARGAFFGLSTRHDKSHVVRSVLEGVTYGLRDSFRIVRDDLGVDTGQLKAAGGGAKSPLWKQIQADIFDAEILTPNVDEGPAYGSALLAGVGADVYDNVADATEQAVDIVDSVEPIDQHTRVYDEYYEIYESLYPALEDSFAANSAAIESAQDILDEA
# notes: xylulokinase, Halorhabdus utahensis, gene Huta_2446 (1548 nucleotides); calculated subunit mass 55.1 kDa; Gene amplified from genomic DNA and cloned into pTA963; source: Haloferax volcanii H1209, purified (Ni-NTA, size-exclusion chromatography, Phenyl-Sepharose)
# B3: Xylose isomerase of Halorhabdus utahensis (Huta_2443) (enzyme, UniProt C7NMH0 1-438, looked up)
# chain: MSEYFPEIDEITYEGPDSQDPLSFSYYDPEKQVGEKTMAEHLRFSVAYWHTLREDGSDPFGAGTMQRPWDDIDDPMEKAHARVDAAFEFFEKLGVPYFCFHDRDIAPKGEDLAESNENLDEIVDHVEEKIDETGVELLWGTAQLFMEPKFAHGAATSPNPDVFAHAAGQVKKAMEVTERLGGENFVFWGGREGYKTLLNSDMGRELDNMGRFFRMAADYADDIGFDGQLLIEPKPKEPTKHQYDFDAANVMAFLREYGLEDRFNLNLEANHATLAGHTFRHELQYARVNDALGSVDANQGDKLIGWDTDEFPTDVYMTTLAMYEVLENDGIAPGGLNFDAKVRRESFEPVDLFYGHVVGMDTFARGLEVAHELREDGVFADVIDDRYGYDAGIGAEIAAESTDFEALAEYALENDGIELESGRQEKLKAVLNSYILES
# notes: xylose isomerase, Halorhabdus utahensis, gene Huta_2443 (1317 nucleotides); calculated subunit mass 49.3 kDa; Gene amplified from genomic DNA and cloned into pTA963; Elution from Ni-NTA implies a His tag; also called class II xylose isomerase; source: Haloferax volcanii H1209, purified (Ni-NTA, size-exclusion chromatography)
# B4: ribokinase (HTIA_0439) (Halorhabdus tiamatea SARL4B) (protein)
# chain: MGNVYVAGSINQDIAVRLERRPQPGETVPGESASFGLGGKGANQAIAAARSGAAVELIGAVGDDRFGEELLADLDTEDGLSTAGVHRASNTSTGVALITVDADSENAIVAVPGANAALAPADVGDVGMEDDAVVLSQFEIPQPTIRTFFEQAHAQGARTVLNPAPAETVREDLLERVDFLVVNETEALFYADGDSKGQLSQDELVETAAALRTHDEQVVVVTLGEAGVFASTPSETIELDAYAVDPVDTTGAGDAFVGAFATALGDGLRLRDALDVGAAAGALATTQTGAAPSLPTRAAIEDLRADE
# notes: full length, overexpressed, recombinant (Haloferax volcanii H1209, pTA963, His tag by general methods)
# B5: Ribulokinase of Halorhabdus utahensis (Huta_1150) (enzyme, UniProt C7NMB8 1-512, looked up)
# chain: MDGQYLVGTDIGTNSTKTILVSPEGEVLGTGNAGYEVEQPEPSWAQQWPDVWVEATYDSIQQAIDEAEVDPSEIRGISISSLYGGAGVPLDSEGEPVYPCLIWMDRRATDQVEWVKENVDLDRLFEITGNYVDSYYGYTKIRWIKEHEPEVWDDIENFVPPNNYVEYVMTDELAVDYSSAGNVGGVFDIHDLAWSEEACEMLEIPIEKFPERLVPTEEIVGEVTADAAEASGLPEGTPVLAGGVDAPMATLAAGAFEEGDNVSMMGTSTCWGTIHEGAGLDQQLVSMPHVAEGEEKIYTWGGSATTGGLIEWFKDEFGGPEEQAGELVDVDPFELLNMKAEEIPAGSEGLVALPYFKGERSPIWDPDARGMFTGLSLYHGKSHMYRALMEAGGYSLRHNVEVAEEIGIPLNDETSVVGGVSNSELWMQILADVTGRRMEVPAGGVGAPLGDALVVGVGTGLFEDYDVATEWTETGEVYTPEPENVDTYDEYYDIYKRLYQNTKDEMHDLAQL
# notes: ribulokinase, Halorhabdus utahensis, gene Huta_1150 (1539 nucleotides); calculated subunit mass 56.1 kDa; Gene amplified from genomic DNA and cloned into pTA963; also called L-ribulokinase; source: Haloferax volcanii H1209, purified (Ni-NTA, size-exclusion chromatography)
# What was measured:
# [1] = target: Ribose-5-phosphate isomerase of Halorhabdus utahensis (Huta_0832) (Halorhabdus utahensis); test: SEC; Superdex 200 HiLoad column (1.6 by 60 cm), flow rate 1 ml/min, calibrated with the HMW and LMW kits; oligomeric state from the native mass and the calculated subunit mass
# [2] = target: Ribokinase of Halorhabdus tiamatea (HTIA_0439) (Halorhabdus tiamatea); test: as above
# [3] = target: the molecule itself; test: as above
# [4] = substrate: O=C(CO)[C@@H](O)[C@H](O)CO; test: coupled pyruvate kinase/lactate dehydrogenase assay (NADH); format: biochemical, Halorhabdus utahensis; details: ATP co-substrate (12.5 mM standard), 37 °C, pH 8.0, 2 M KCl, 10 mM MgCl2
# [5] = substrate: Nc1ncnc2c1ncn2[C@@H]1O[C@H](COP(=O)(O)OP(=O)(O)OP(=O)(O)O)[C@@H](O)[C@H]1O; test: as above; format: biochemical, Halorhabdus utahensis; details: 37 °C
# [6] = substrate: Nc1ncnc2c1ncn2[C@@H]1O[C@H](COP(=O)(O)OP(=O)(O)OP(=O)(O)O)[C@@H](O)[C@H]1O; test: as above; format: biochemical, Halorhabdus tiamatea; details: D-ribose co-substrate (5 mM standard), 42 °C, pH 7.5 bis-tris, 1.5 M KCl, 10 mM MgCl2
# [7] = substrate: O=C(CO)[C@@H](O)[C@@H](O)CO; test: as above; format: biochemical, Halorhabdus utahensis; details: ATP co-substrate (10 mM standard), 37 °C, pH 8.0, 1.5 M KCl, 50 mM MgCl2
molecule,measurement,setting,value
Ribose-5-phosphate isomerase of Halorhabdus utahensis (Huta_0832) (enzyme),stoichiometry N,[1],4
Ribokinase of Halorhabdus tiamatea (HTIA_0439) (enzyme),stoichiometry N,[2],2
B1,stoichiometry N,[3],6
B2,Km,[4],0.31 mM
same,Km,"[5]; D-xylulose co-substrate (10 mM standard), pH 8.0, 2 M KCl, 10 mM MgCl2",5.68 mM
same,stoichiometry N,[3],2
B3,stoichiometry N,[3],4
B4,Km,[6],0.1 mM
B5,Km,[7],0.55 mM
same,Km,"[5]; L-ribulose co-substrate (1 mM standard), pH 8.0, 1.5 M KCl, 50 mM MgCl2",4.2 mM
same,stoichiometry N,[3],6
